These results are taken from publication PMC12523770.

For this experiment, the target named is MyD88 (myeloid differentiation primary response 88), endogenous in mouse bone marrow-derived macrophages (mouse (endogenous in BMDMs)), P22366. Kind of experiment: cross-linking; WT BMDMs stimulated with 1 µg/mL poly(I:C) for the indicated times (or primed with LPS, positive control); cleared freeze-thaw lysate with 2 mM DSS, 2 h, room temperature; SDS-PAGE, anti-MyD88 blot. The note with it: remark: other sources report otherwise.

B1: MyD88 (myeloid differentiation primary response 88), endogenous in mouse bone marrow-derived macrophages, P22366 1-296 (natural protein)
chain: MSAGDPRVGSGSLDSFMFSIPLVALNVGVRRRLSLFLNPRTPVAADWTLLAEEMGFEYLEIRELETRPDPTRSLLDAWQGRSGASVGRLLELLALLDREDILKELKSRIEEDCQKYLGKQQNQESEKPLQVARVESSVPQTKELGGITTLDDPLGQTPELFDAFICYCPNDIEFVQEMIRQLEQTDYRLKLCVSDRDVLPGTCVWSIASELIEKRCRRMVVVVSDDYLQSKECDFQTKFALSLSPGVQQKRLIPIKYKAMKKDFPSILRFITICDYTNPCTKSWFWTRLAKALSLP
As for B1, the stoichiometry N – broadly, the number of molecules, sites or subunits per partner or assembly – was 2.
